Test results taken from patent publication US20240076381A1.

Molecular target: FcRn-µ2m fusion protein (human β2m fused by (Gly4Ser)3 to the extracellular domain of human FcRn, His-tagged) (human) (UniProt P61769)
Experiment: ELISA on coated FcRn-β2m fusion, pH 6; KD estimated by saturation binding fit

Chain of UniProt P61769 (P61769 other isoform, or with tags, fused parts or gaps limits assumed): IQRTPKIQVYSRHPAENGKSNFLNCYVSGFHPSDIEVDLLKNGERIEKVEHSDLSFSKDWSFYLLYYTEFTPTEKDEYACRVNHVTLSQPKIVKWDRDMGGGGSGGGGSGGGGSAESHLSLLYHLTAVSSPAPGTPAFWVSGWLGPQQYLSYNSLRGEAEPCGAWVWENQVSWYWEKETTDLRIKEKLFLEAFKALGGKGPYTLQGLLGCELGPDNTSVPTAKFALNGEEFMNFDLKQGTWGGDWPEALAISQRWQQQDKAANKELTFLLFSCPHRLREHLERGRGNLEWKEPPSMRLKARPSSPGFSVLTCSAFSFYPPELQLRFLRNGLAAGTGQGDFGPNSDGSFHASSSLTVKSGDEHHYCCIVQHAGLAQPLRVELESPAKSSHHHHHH

Kd: 0.9 µM
Substance: Trastuzumab IgG (antibody)
